Assay results taken from article PMC11327020.

Biological target: CXCR4 on THP-1 cells (human (endogenous in THP-1)) (UniProt P61073)
UniProt P61073, sequence (P61073 whole entry): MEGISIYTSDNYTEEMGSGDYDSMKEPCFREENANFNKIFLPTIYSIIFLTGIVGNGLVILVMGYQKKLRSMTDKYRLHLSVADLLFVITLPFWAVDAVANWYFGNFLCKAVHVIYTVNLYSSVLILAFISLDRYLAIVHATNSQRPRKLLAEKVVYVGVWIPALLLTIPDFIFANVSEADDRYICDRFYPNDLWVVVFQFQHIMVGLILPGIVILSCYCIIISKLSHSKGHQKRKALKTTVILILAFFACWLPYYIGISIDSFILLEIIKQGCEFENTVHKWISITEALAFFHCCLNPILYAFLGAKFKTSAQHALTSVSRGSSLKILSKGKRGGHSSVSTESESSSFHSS

CXCR4 internalization (loss of surface CXCR4 by flow cytometry) in THP-1 cells, 100 ng/mL SDF-1 for 15 minutes; uncut SDF-1, and SDF-1 pre-incubated with COAM 100x before protease at similar levels (% of receptor internalization): 25
Substance: Recombinant human stromal cell-derived factor-1 (SDF-1/CXCL12), intact (from UniProt P48061 22-93) (ligand)
